Data published in PMC4768215, “Targeting surface-layer proteins with single-domain antibodies: a potential therapeutic approach against Clostridium difficile-associated disease” (Applied Microbiology and Biotechnology, 2015).

Experiments:
[1] = target: T1, 630 SLP (surface layer protein of C. difficile strain 630, HMW and LMW subunits) (Clostridioides difficile 630 (ribotype …, UniProt Q183M8, strain)); test: SPR; Biacore 3000; 630 SLP immobilised on a CM5 chip, VHHs injected at various concentrations; data not shown; conditions: both partners purified
T1 construct: low-molecular-weight (LMW) subunit of the surface layer protein, cut from the precursor SlpA by Cwp84, C. difficile strain 630 (ribotype 012); predicted mass 34.2 kDa; high-molecular-weight (HMW) subunit of the surface layer protein, cut from the precursor SlpA by Cwp84, C. difficile strain 630 (ribotype 012); predicted mass 39.5 kDa; Both subunits come from one precursor, SlpA; source: purified …

[2] = target: T2, QCD-32g58 LMW SLP (low-molecular-weight subunit of the QCD-32g58 surface layer protein) (Clostridioides difficile QCD-32g58 …, UniProt A0A9R0BMB3, strain); test: SPR; Biacore 3000; SEC-purified QCD-32g58 LMW SLP subunit amine-coupled to a CM5 chip; single-concentration screen, 200 nM VHH; 25 °C, 10 mM HEPES pH 7.4, 150 mM NaCl, 3 mM EDTA, 0.005 % P20; conditions: both partners purified
T2 construct: low-molecular-weight (LMW) subunit of the surface layer protein, cut from the precursor SlpA by Cwp84, C. difficile strain QCD-32g58 (ribotype 027); predicted mass 33.9 kDa; also called QCD-32g58 SLP LMW subunit; LMW subunit; source: purified from C. difficile QCD-32g58 (low-pH glycine extraction, minor SEC peak at about 15 ml); in the Western blot the LMW band of the extracted SLPs

[3] = target: T3, QCD-32g58 SLP (surface layer protein of C. difficile strain QCD-32g58, HMW and LMW subunits) (Clostridioides difficile QCD-32g58 …, UniProt A0A9R0BMB3, strain); test: SPR; Biacore 3000; fresh QCD-32g58 SLP surface on a CM5 chip, a single injection of each VHH (50 mM NaOH regeneration destroyed the surface); 25 °C, 10 mM HEPES pH 7.4, 150 mM NaCl, 3 mM EDTA, 0.005 % P20; KD from kinetic rate constants; conditions: both partners purified
T3 construct: low-molecular-weight (LMW) subunit of the surface layer protein, cut from the precursor SlpA by Cwp84, C. difficile strain QCD-32g58 (ribotype 027); predicted mass 33.9 kDa; high-molecular-weight (HMW) subunit of the surface layer protein, cut from the precursor SlpA by Cwp84, C. difficile strain QCD-32g58 (ribotype 027); predicted mass 44.2 kDa; Both subunits come from one precursor, SlpA; also …

[4] = target: T4, SLP on cells of C. difficile strain BI-7 (ribotype 027) (Clostridioides difficile BI-7 (ribotype …, UniProt A0A9R0BMB3, strain)); test: ELISA; whole cell ELISA: formalin-fixed C. difficile cells coated on MaxiSorp plates, His6-tagged VHH at 10 μg/ml in PBS-T, 37 °C, 1 h, detected with anti-His6-HRP; conditions: one partner purified
T4 construct: LMW subunit of the surface layer protein (from the precursor SlpA), C. difficile strain BI-7, ribotype 027; HMW subunit of the surface layer protein (from the precursor SlpA), C. difficile strain BI-7, ribotype 027; Whole cells were the antigen; source: endogenous, on formalin-fixed C. difficile BI-7 cells

[5] = target: T5, SLP on cells of C. difficile strain 196 (ribotype 027) (Clostridioides difficile 196 (ribotype …, UniProt A0A9R0BMB3, strain)); test: as above; conditions: one partner purified
T5 construct: LMW subunit of the surface layer protein (from the precursor SlpA), C. difficile strain 196, ribotype 027; HMW subunit of the surface layer protein (from the precursor SlpA), C. difficile strain 196, ribotype 027; Whole cells were the antigen; source: endogenous, on formalin-fixed C. difficile 196 cells

[6] = target: T6, SLP on cells of C. difficile strain BI-1 (ribotype 027) (Clostridioides difficile BI-1 (ribotype …, UniProt A0A9R0BMB3, strain)); test: as above; conditions: one partner purified
T6 construct: LMW subunit of the surface layer protein (from the precursor SlpA), C. difficile strain BI-1, ribotype 027; HMW subunit of the surface layer protein (from the precursor SlpA), C. difficile strain BI-1, ribotype 027; Whole cells were the antigen; source: endogenous, on formalin-fixed C. difficile BI-1 cells

[7] = target: T7, SLP on cells of C. difficile strain R20291 (ribotype 027) (Clostridioides difficile R20291 …, UniProt A0A9R0BMB3, strain); test: as above; conditions: one partner purified
T7 construct: LMW subunit of the surface layer protein (from the precursor SlpA), C. difficile strain R20291, ribotype 027; HMW subunit of the surface layer protein (from the precursor SlpA), C. difficile strain R20291, ribotype 027; Whole cells were the antigen; source: endogenous, on formalin-fixed C. difficile R20291 cells

[8] = target: T1, 630 SLP (surface layer protein of C. …); test: ELISA; monoclonal phage ELISA: phage-displayed VHHs on immobilized SLPs; conditions: one partner purified
[9] = target: T3, QCD-32g58 SLP (surface layer protein of …); test: SPR; Biacore 3000; SEC-purified QCD-32g58 SLP amine-coupled to a CM5 chip, VHH monomer fractions injected at various concentrations; 25 °C, 10 mM HEPES pH 7.4, 150 mM NaCl, 3 mM EDTA, 0.005 % P20; KD by steady-state analysis; conditions: both partners purified
[10] = target: T3, QCD-32g58 SLP (surface layer protein of …); test: SPR; Biacore 3000; SEC-purified QCD-32g58 SLP amine-coupled to a CM5 chip, VHH monomer fractions injected at various concentrations; 25 °C, 10 mM HEPES pH 7.4, 150 mM NaCl, 3 mM EDTA, 0.005 % P20, 20 μl/min; KD from kinetic rate constants; conditions: both partners purified

B1: SLP_VHH12 (VHH)
VHH: QVQLVESGGGLVQAGDSLRLSCAASGGTFSSYAVGWFRQAPGKERQFVAAISWSGRSTEYADSVKGRFTISRDNAKNTVYLQMNSLQPDDTGVYYCAADWSHPENKAELLRLRLWVLSAESSDYWGQGTQVTVSS
notes: From an immune llama phage display library panned on QCD-32g58 SLP; source: monomeric SEC fractions for SPR; not shown: His6, C-terminal, kept
binding result [1]: no binding
Kd [2]: 1 nM
koff [2]: 0.00012 s⁻¹
kon [2]: 140000 M⁻¹ s⁻¹
Kd [3]: 3 nM
koff [3]: 0.00034 s⁻¹
kon [3]: 120000 M⁻¹ s⁻¹
binding result [4]: binds
binding result [5]: binds
binding result [6]: binds
binding result [7]: binds

B2: SLP_VHH12 displayed on phage (VHH)
VHH: QVQLVESGGGLVQAGDSLRLSCAASGGTFSSYAVGWFRQAPGKERQFVAAISWSGRSTEYADSVKGRFTISRDNAKNTVYLQMNSLQPDDTGVYYCAADWSHPENKAELLRLRLWVLSAESSDYWGQGTQVTVSS
notes: as the VHH of m3
binding result [8]: no binding

B3: SLP_VHH49 (VHH)
VHH: QVKLEESGGGLVQAGGSLRLSCAASEGAFSDALSRHAAGWFRQAPGKEREFVAAISWNGANTDYKNSVNNRFTISRDTSKNTVYLQMNSLKPEDTAVYYCAAKNEPSWISRIYYRGLEYDYWGQGTQVTVSS
notes: as for B1
binding result [1]: no binding
Kd [9]: 48 nM
Kd [2]: 20 nM
koff [2]: 0.012 s⁻¹
kon [2]: 590000 M⁻¹ s⁻¹
binding result [4]: binds
binding result [5]: binds
binding result [6]: binds
binding result [7]: binds

B4: SLP_VHH49 displayed on phage (VHH)
VHH: QVKLEESGGGLVQAGGSLRLSCAASEGAFSDALSRHAAGWFRQAPGKEREFVAAISWNGANTDYKNSVNNRFTISRDTSKNTVYLQMNSLKPEDTAVYYCAAKNEPSWISRIYYRGLEYDYWGQGTQVTVSS
notes: as the VHH of m8
binding result [8]: no binding

B5: SLP_VHH46 (VHH)
VHH: QVKLEESGGGLVQAGGSLRLSCADSERTFRIYTMAWFRQAPGKERDFVAAISWSGGSTYYADSVKGRFTISRDNAKNTVYLPMNSLKPDDTAVYYCASGGVLSTGSQSDSEYDFWGQGTQVTVSS
notes: as for B1
binding result [1]: no binding
Kd [2]: 2 nM
koff [2]: 0.00032 s⁻¹
kon [2]: 150000 M⁻¹ s⁻¹
Kd [10]: 3 nM
koff [10]: 0.00034 s⁻¹
kon [10]: 110000 M⁻¹ s⁻¹
binding result [4]: binds
binding result [5]: binds
binding result [6]: binds
binding result [7]: binds

B6: SLP_VHH46 displayed on phage (VHH)
VHH: QVKLEESGGGLVQAGGSLRLSCADSERTFRIYTMAWFRQAPGKERDFVAAISWSGGSTYYADSVKGRFTISRDNAKNTVYLPMNSLKPDDTAVYYCASGGVLSTGSQSDSEYDFWGQGTQVTVSS
notes: as the VHH of m7
binding result [8]: no binding

B7: SLP_VHH50 displayed on phage (VHH)
VHH: QVKLEESGGGLVQPGGSLRLSCAASGFTLDYYTIGWFRQAPGKEREGVACISSDDRTYYVDSVKGRFAISRDNVKNTVYLQMNNLKPEDTAVYYCASKESVFLIATMKGCAPGHDDYWGQGTQVTVSS
notes: as the VHH of m9
binding result [8]: no binding

B8: SLP_VHH22 displayed on phage (VHH)
VHH: QVQLVESGGGLVQPGGSLRLSCAASGFTLDSYAIGWFRQAPGKEHEGISCISSNGGSTYYTDSVKGRFTISRDNAKNTVYLQMNSLESEDSAVYYCATVRRCSSLDMALGALATRTKGYDYWGQGTQVTVSS
notes: as the VHH of m4
binding result [8]: no binding

B9: SLP_VHH23 (VHH)
VHH: QVQLVESGGGLVQAGGSLRLSCAASGRTFSSYAVGWFRQAPGKEREFVAAISWSGGYTDYADSVKGRFTISRDNAKNTVYLQMNNLKPEDTAVYYCAADWSHPENKAELLRLRLWVLSAESSDDWGQGTQVTVSS
notes: as for B1
binding result [1]: no binding
Kd [2]: 3 nM
koff [2]: 0.00032 s⁻¹
kon [2]: 110000 M⁻¹ s⁻¹
Kd [3]: 4 nM
koff [3]: 0.00037 s⁻¹
kon [3]: 94000 M⁻¹ s⁻¹
binding result [4]: binds
binding result [5]: binds
binding result [6]: binds
binding result [7]: binds

B10: SLP_VHH23 displayed on phage (VHH)
VHH: QVQLVESGGGLVQAGGSLRLSCAASGRTFSSYAVGWFRQAPGKEREFVAAISWSGGYTDYADSVKGRFTISRDNAKNTVYLQMNNLKPEDTAVYYCAADWSHPENKAELLRLRLWVLSAESSDDWGQGTQVTVSS
notes: as the VHH of m5
binding result [8]: no binding

B11: SLP_VHH5 (VHH)
VHH: QVKLEESGGGLVQAGGSLRLSCAASRLTFSTYHMGWFRQAPGKEREFVAALSWSGGTTYYADSVKGRFGISRDNAKNTVYLQMNSLKPEDTAVYYCASGGVLATMNSDEYDYWGQGTQVTVSS
notes: as for B1
Kd [2]: 3 nM
koff [2]: 0.00041 s⁻¹
kon [2]: 140000 M⁻¹ s⁻¹
Kd [10]: 6 nM
koff [10]: 0.00046 s⁻¹
kon [10]: 82000 M⁻¹ s⁻¹
binding result [4]: binds
binding result [5]: binds
binding result [6]: binds
binding result [7]: binds

B12: SLP_VHH2 (VHH)
VHH: QVKLEESGGGLVQPGGSLRLSCAASGGTFTNYAMAWFRQTPGNDREFVGIISQKGGRTYYADSVKGRFSVSRDNAKNTAYLQMNSLKPEDTAVYYCAAGDSSYYYTRSRYDIWGQGTQVTVSS
notes: as for B1
Kd [1]: 1000 nM
Kd [9]: 230 nM
Kd [2]: 90 nM
koff [2]: 0.013 s⁻¹
kon [2]: 150000 M⁻¹ s⁻¹
binding result [4]: binds
binding result [5]: binds
binding result [6]: binds
binding result [7]: binds
